# IntAct's records for PubMed 18458160
# B1: KN motif and ankyrin repeat domain-containing protein 1 (Homo sapiens), Q14678-2 (parent)
# chain: METRRRLEQERATMQMTPGEFRRPRLASFGGMGTTSSLPSFVGSGNHNPAKHQLQNGYQGNGDYGSYAPAAPTTSSMGSSIRHSPLSSGISTPVTNVSPMHLQHIREQMAIALKRLKELEEQVRTIPVLQVKISVLQEEKRQLVSQLKNQRAASQINVCGVRKRSYSAGNASQLEQLSRARRSGGELYIDYEEEEMETVEQSTQRIKEFRQLTADMQALEQKIQDSSCEASSELRENGECRSVAVGAEENMNDIVVYHRGSRSCKDAAVGTLVEMRNCGVSVTEAMLGVMTEADKEIELQQQTIESLKEKIYRLEVQLRETTHDREMTKLKQELQAAGSRKKVDKATMAQPLVFSKVVEAVVQTRDQMVGSHMDLVDTCVGTSVETNSVGISCQPECKNKVVGPELPMNWWIVKERVEMHDRCAGRSVEMCDKSVSVEVSVCETGSNTEESVNDLTLLKTNLNLKEVRSIGCGDCSVDVTVCSPKECASRGVNTEAVSQVEAAVMAVPRTADQDTSTDLEQVHQFTNTETATLIESCTNTCLSTLDKQTSTQTVETRTVAVGEGRVKDINSSTKTRSIGVGTLLSGHSGFDRPSAVKTKESGVGQININDNYLVGLKMRTIACGPPQLTVGLTASRRSVGVGDDPVGESLENPQPQAPLGMMTGLDHYIERIQKLLAEQQTLLAENYSELAEAFGEPHSQMGSLNSQLISTLSSINSVMKSASTEELRNPDFQKTSLGKITGNYLGYTCKCGGLQSGSPLSSQTSQPEQEVGTSEGKPISSLDAFPTQEGTLSPVNLTDDQIAAGLYACTNNESTLKSIMKKKDGNKDSNGAKKNLQFVGINGGYETTSSDDSSSDESSSSESDDECDVIEYPLEEEEEEEDEDTRGMAEGHHAVNIEGLKSARVEDEMQVQECEPEKVEIRERYELSEKMLSACNLLKNTINDPKALTSKDMRFCLNTLQHEWFRVSSQKSAIPAMVGDYIAAFEAISPDVLRYVINLADGNGNTALHYSVSHSNFEIVKLLLDADVCNVDHQNKAGYTPIMLAALAAVEAEKDMRIVEELFGCGDVNAKASQAGQTALMLAVSHGRIDMVKGLLACGADVNIQDDEGSTALMCASEHGHVEIVKLLLAQPGCNGHLEDNDGSTALSIALEAGHKDIAVLLYAHVNFAKAQSPGTPRLGRKTSPGPTHRGSFD
# partner: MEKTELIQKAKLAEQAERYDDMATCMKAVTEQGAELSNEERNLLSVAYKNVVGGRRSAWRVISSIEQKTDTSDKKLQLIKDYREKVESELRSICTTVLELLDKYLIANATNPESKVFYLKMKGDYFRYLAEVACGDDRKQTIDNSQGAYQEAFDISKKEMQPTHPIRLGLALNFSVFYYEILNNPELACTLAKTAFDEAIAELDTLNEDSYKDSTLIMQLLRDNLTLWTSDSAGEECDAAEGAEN
# B2: KN motif and ankyrin repeat domain-containing protein 1 (Homo sapiens), Q14678-2 (parent)
# chain: B1 chain
# partner: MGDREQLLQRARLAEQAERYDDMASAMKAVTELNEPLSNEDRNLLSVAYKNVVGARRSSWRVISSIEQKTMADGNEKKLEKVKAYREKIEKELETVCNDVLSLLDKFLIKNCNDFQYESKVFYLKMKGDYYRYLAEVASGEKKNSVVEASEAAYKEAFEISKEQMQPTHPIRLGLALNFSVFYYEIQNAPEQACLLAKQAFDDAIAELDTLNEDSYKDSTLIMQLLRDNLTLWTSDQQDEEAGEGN
# B3: KN motif and ankyrin repeat domain-containing protein 1 (Homo sapiens), Q14678-2 (parent)
# chain: B1 chain
# partner: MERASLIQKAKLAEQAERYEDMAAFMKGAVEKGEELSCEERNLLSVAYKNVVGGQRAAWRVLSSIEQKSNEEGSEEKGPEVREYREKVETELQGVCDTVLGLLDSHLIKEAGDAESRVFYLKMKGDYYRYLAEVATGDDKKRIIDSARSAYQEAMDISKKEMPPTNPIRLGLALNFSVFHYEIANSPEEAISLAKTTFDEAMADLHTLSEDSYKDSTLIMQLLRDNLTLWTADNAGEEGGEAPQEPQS
# B4: KN motif and ankyrin repeat domain-containing protein 1 (Homo sapiens), Q14678-2 (parent)
# chain: B1 chain
# partner: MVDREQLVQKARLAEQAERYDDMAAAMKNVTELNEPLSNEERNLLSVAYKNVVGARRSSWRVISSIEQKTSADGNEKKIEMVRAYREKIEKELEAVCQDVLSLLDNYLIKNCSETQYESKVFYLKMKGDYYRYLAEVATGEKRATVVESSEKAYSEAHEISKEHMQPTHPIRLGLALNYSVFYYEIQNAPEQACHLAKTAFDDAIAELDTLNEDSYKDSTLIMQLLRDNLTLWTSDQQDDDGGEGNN
# B5: KN motif and ankyrin repeat domain-containing protein 1 (Homo sapiens), Q14678-2 (parent)
# chain: B1 chain
# Variants of: B1
# Settings: with 1433t_human YWHAQ
row,Variant,effect of a mutation on the interaction
1,S167A,disrupting interaction

# Variants of: B2
# Settings: with 1433f_human YWHAH
row,Variant,effect of a mutation on the interaction
1,S167A,disrupting interaction

# Variants of: B3
# Settings: with 1433s_human SFN
row,Variant,effect of a mutation on the interaction
1,S167A,disrupting interaction

# Variants of: B4
# Settings: with 1433g_human YWHAG
row,Variant,effect of a mutation on the interaction
1,S167A,disrupting interaction

# Variants of: B5
# Settings: with 1433z_human YWHAZ
row,Variant,effect of a mutation on the interaction
1,S167A,disrupting interaction

# Variants of: B5
# Settings: with 1433e_human YWHAE
row,Variant,effect of a mutation on the interaction
1,S167A,disrupting interaction

# Variants of: B5
# Settings: with 1433b_human YWHAB
row,Variant,effect of a mutation on the interaction
1,S167A,disrupting interaction
